Test system: CHOP, BiP, and DR5 mRNA in HCT116 cells
Assay: qPCR of UPR target transcripts (CHOP, BiP, DR5)
Type: cell-based, Homo sapiens
Conditions: HCT116; for ERO1alpha (386+387) avg. fold induction relative to empty traffo / ERO1alpha (386+387) fold induction relative to empty traffo: melt curves for these primers showed two peaks; for GAPDH avg. fold induction relative to empty traffo / GAPDH fold induction relative to empty traffo: sheet Cq data 2
Method: Cells were grown in 6-well plates and harvested with 0.5 ml of TRIzol reagent (Life Technologies) per manufacturer’s protocol to extract RNA. For cDNA synthesis, 500 ng of total RNA was reverse transcribed with 2 μl of the SuperScript VILO master mix (Life Technologies # 11755050) in a total reaction volume of 10 μl following the manufacturer’s protocol for reaction temperature and duration. The reverse transcription product was diluted to 200 μl with 10 mM Tris-HCl pH 8.2 and used at 1:100 dilution for subsequent RT-PCR reactions.
PCR samples were prepared as described by manufacturer’s protocols from iQ SYBR Green Supermix (BioRad #17088800).
For each experiment, qRT-PCR reactions were set up in triplicate and run using a CFX96 Real Time System (Bio-Rad). Quantitation cycles were determined with CFX Manager 3.0 software (Bio-Rad) and then normalized to GAPDH as an internal control.

[1] = pRK CHOP 31 ng, mean of 3 replicates
[2] = pRK CHOP 62 ng, mean of 3 replicates
[3] = pRK CHOP 125 ng, mean of 3 replicates
[4] = pRK CHOP 250 ng, mean of 3 replicates
[5] = pRK CHOP 500 ng, mean of 3 replicates

B1: pRK CHOP (protein, UniProt P35638 1-169, looked up)
DNA damage-inducible …: MAAESLPFSFGTLSSWELEAWYEDLQEVLSSDENGGTYVSPPGNEEEESKIFTTLDPASLAWLTEEEPEPAEVTSTSQSPHSPDSSQSSLAQEEEEEDQGRTRKRKQSGHSPARAGKQRMKEKEQENERKVAQLAEENERLKQEIERLTREVEATRRALIDRMVNLHQA
modifications: expression plasmid
pRK CHOP 31 ng, replicate 1
  GAPDH (qPCR CHOP, Sheet1): 0.869
  ERO1alpha (386+387) fold induction relative to empty traffo: 0.958
  GADD34 (388+389) fold induction relative to empty traffo: 1.125
  GFP fold induction relative to empty traffo: 1.737
  GAPDH fold induction relative to empty traffo: 0.9404
pRK CHOP 31 ng, replicate 2
  CHOP (qPCR CHOP, Sheet1): 19.1521
  DR5 (qPCR CHOP, Sheet1): 0.9212
  GADD34 (qPCR CHOP, Sheet1): 1.088
  GAPDH (qPCR CHOP, Sheet1): 1.031
  ERO1alpha (386+387) fold induction relative to empty traffo: 1.088
  GADD34 (388+389) fold induction relative to empty traffo: 0.859
  GFP fold induction relative to empty traffo: 1.908
  GAPDH fold induction relative to empty traffo: 0.905
pRK CHOP 31 ng, replicate 3
  CHOP (qPCR CHOP, Sheet1): 20.8362
  DR5 (qPCR CHOP, Sheet1): 2.023
  GADD34 (qPCR CHOP, Sheet1): 1.137
  GAPDH (qPCR CHOP, Sheet1): 1.033
  ERO1alpha (386+387) fold induction relative to empty traffo: 1.137
  GADD34 (388+389) fold induction relative to empty traffo: 1.016
  GFP fold induction relative to empty traffo: 1.822
  GAPDH fold induction relative to empty traffo: 1.174
[1]
  GADD34 (388+389) avg. fold induction relative to empty traffo: 1
  GFP avg. fold induction relative to empty traffo: 1.822
  ERO1alpha (386+387) avg. fold induction relative to empty traffo: 1.061
  GAPDH avg. fold induction relative to empty traffo: 1.0065
[2]
  GFP avg. fold induction relative to empty traffo: 1.726
  ERO1alpha (386+387) avg. fold induction relative to empty traffo: 1.099
  GAPDH avg. fold induction relative to empty traffo: 1.001
pRK CHOP 62 ng, replicate 1
  ERO1alpha (386+387) fold induction relative to empty traffo: 1.074
  GADD34 (388+389) fold induction relative to empty traffo: 0.9151
  GFP fold induction relative to empty traffo: 1.604
  GAPDH fold induction relative to empty traffo: 0.9597
pRK CHOP 62 ng, replicate 2
  ERO1alpha (386+387) fold induction relative to empty traffo: 1.056
  GADD34 (388+389) fold induction relative to empty traffo: 1.316
  GFP fold induction relative to empty traffo: 1.747
  GAPDH fold induction relative to empty traffo: 0.9785
pRK CHOP 62 ng, replicate 3
  ERO1alpha (386+387) fold induction relative to empty traffo: 1.168
  GADD34 (388+389) fold induction relative to empty traffo: 1.12
  GFP fold induction relative to empty traffo: 1.828
  GAPDH fold induction relative to empty traffo: 1.064
pRK CHOP 125 ng, replicate 1
  CHOP (qPCR CHOP, Sheet1): 230.561
  DR5 (qPCR CHOP, Sheet1): 1.242
  GADD34 (qPCR CHOP, Sheet1): 1.11
  GAPDH (qPCR CHOP, Sheet1): 0.8158
  ERO1alpha (386+387) fold induction relative to empty traffo: 1.11
  GADD34 (388+389) fold induction relative to empty traffo: 1.561
  GFP fold induction relative to empty traffo: 9.5448
  GAPDH fold induction relative to empty traffo: 0.7828
pRK CHOP 125 ng, replicate 2
  CHOP (qPCR CHOP, Sheet1): 173.762
  DR5 (qPCR CHOP, Sheet1): 1.206
  GADD34 (qPCR CHOP, Sheet1): 1.18
  GAPDH (qPCR CHOP, Sheet1): 1.045
  ERO1alpha (386+387) fold induction relative to empty traffo: 1.18
  GADD34 (388+389) fold induction relative to empty traffo: 1.2889
  GFP fold induction relative to empty traffo: 8.015
  GAPDH fold induction relative to empty traffo: 1.018
pRK CHOP 125 ng, replicate 3
  CHOP (qPCR CHOP, Sheet1): 257.78
  DR5 (qPCR CHOP, Sheet1): 1.064
  GADD34 (qPCR CHOP, Sheet1): 1.241
  GAPDH (qPCR CHOP, Sheet1): 1.086
  ERO1alpha (386+387) fold induction relative to empty traffo: 1.241
  GADD34 (388+389) fold induction relative to empty traffo: 1.475
  GFP fold induction relative to empty traffo: 7.683
  GAPDH fold induction relative to empty traffo: 1.254
[3]
  GFP avg. fold induction relative to empty traffo: 8.414
  ERO1alpha (386+387) avg. fold induction relative to empty traffo: 1.177
  GAPDH avg. fold induction relative to empty traffo: 1.018
[4]
  GFP avg. fold induction relative to empty traffo: 2.186
  ERO1alpha (386+387) avg. fold induction relative to empty traffo: 1.157
  GAPDH avg. fold induction relative to empty traffo: 1.005
pRK CHOP 250 ng, replicate 1
  ERO1alpha (386+387) fold induction relative to empty traffo: 1.13
  GADD34 (388+389) fold induction relative to empty traffo: 1.613
  GFP fold induction relative to empty traffo: 2.374
  GAPDH fold induction relative to empty traffo: 0.8675
pRK CHOP 250 ng, replicate 2
  ERO1alpha (386+387) fold induction relative to empty traffo: 1.17
  GADD34 (388+389) fold induction relative to empty traffo: 1.727
  GFP fold induction relative to empty traffo: 2.176
  GAPDH fold induction relative to empty traffo: 1.034
pRK CHOP 250 ng, replicate 3
  ERO1alpha (386+387) fold induction relative to empty traffo: 1.17
  GADD34 (388+389) fold induction relative to empty traffo: 1.397
  GFP fold induction relative to empty traffo: 2.009
  GAPDH fold induction relative to empty traffo: 1.114
pRK CHOP 500 ng, replicate 1
  CHOP (qPCR CHOP, Sheet1): 1691.32
  DR5 (qPCR CHOP, Sheet1): 1.92
  GADD34 (qPCR CHOP, Sheet1): 1.469
  GAPDH (qPCR CHOP, Sheet1): 0.9688
  ERO1alpha (386+387) fold induction relative to empty traffo: 1.469
  GADD34 (388+389) fold induction relative to empty traffo: 2.321
  GFP fold induction relative to empty traffo: 5.396
  GAPDH fold induction relative to empty traffo: 0.6526
pRK CHOP 500 ng, replicate 2
  CHOP (qPCR CHOP, Sheet1): 1384.67
  DR5 (qPCR CHOP, Sheet1): 1.724
  GADD34 (qPCR CHOP, Sheet1): 1.35
  GAPDH (qPCR CHOP, Sheet1): 0.7886
  ERO1alpha (386+387) fold induction relative to empty traffo: 1.35
  GADD34 (388+389) fold induction relative to empty traffo: 2.041
  GAPDH fold induction relative to empty traffo: 1.156
pRK CHOP 500 ng, replicate 3
  CHOP (qPCR CHOP, Sheet1): 1378.19
  DR5 (qPCR CHOP, Sheet1): 1.731
  GADD34 (qPCR CHOP, Sheet1): 1.457
  GAPDH (qPCR CHOP, Sheet1): 1.212
  ERO1alpha (386+387) fold induction relative to empty traffo: 1.457
  GADD34 (388+389) fold induction relative to empty traffo: 2.147
  GFP fold induction relative to empty traffo: 5.386
  GAPDH fold induction relative to empty traffo: 1.324
[5]
  GFP avg. fold induction relative to empty traffo: 12.178
  ERO1alpha (386+387) avg. fold induction relative to empty traffo: 1.425
  GAPDH avg. fold induction relative to empty traffo: 1.044
